Source: US20210356479A1 (BLOODWORKS, published 2021)

T1: human Kell glycoprotein, k form (KEL2) (human, UniProt P23276 1-732)
T1 construct: whole, on cells; On human k/k or K-k+ RBCs; also called k antigen
T1 sequence (looked up): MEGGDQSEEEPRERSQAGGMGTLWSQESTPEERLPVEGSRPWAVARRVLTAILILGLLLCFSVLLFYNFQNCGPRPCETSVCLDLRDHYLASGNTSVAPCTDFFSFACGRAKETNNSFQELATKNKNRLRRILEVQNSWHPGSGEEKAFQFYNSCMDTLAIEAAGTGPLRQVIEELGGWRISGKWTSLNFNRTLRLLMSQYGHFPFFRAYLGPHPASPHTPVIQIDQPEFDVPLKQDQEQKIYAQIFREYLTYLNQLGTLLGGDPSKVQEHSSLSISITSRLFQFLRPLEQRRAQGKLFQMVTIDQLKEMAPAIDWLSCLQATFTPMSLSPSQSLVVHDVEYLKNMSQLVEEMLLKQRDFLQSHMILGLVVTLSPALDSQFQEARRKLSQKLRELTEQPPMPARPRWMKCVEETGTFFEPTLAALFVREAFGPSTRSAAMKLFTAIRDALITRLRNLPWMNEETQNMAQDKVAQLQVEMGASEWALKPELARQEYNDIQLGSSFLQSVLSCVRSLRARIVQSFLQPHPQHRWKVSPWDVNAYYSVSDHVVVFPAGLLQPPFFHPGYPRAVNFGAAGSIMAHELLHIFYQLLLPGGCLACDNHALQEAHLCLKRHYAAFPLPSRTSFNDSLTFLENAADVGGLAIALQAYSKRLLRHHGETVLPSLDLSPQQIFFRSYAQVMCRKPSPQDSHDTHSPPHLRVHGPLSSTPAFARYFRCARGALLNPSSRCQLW

T2: human Kell glycoprotein, K form (KEL1) (human, UniProt P23276 1-732)
T2 construct: whole, on cells; On human K/K or K+k+ RBCs and on RBCs of K transgenic mice; also called K antigen; K variant
T2 sequence (looked up): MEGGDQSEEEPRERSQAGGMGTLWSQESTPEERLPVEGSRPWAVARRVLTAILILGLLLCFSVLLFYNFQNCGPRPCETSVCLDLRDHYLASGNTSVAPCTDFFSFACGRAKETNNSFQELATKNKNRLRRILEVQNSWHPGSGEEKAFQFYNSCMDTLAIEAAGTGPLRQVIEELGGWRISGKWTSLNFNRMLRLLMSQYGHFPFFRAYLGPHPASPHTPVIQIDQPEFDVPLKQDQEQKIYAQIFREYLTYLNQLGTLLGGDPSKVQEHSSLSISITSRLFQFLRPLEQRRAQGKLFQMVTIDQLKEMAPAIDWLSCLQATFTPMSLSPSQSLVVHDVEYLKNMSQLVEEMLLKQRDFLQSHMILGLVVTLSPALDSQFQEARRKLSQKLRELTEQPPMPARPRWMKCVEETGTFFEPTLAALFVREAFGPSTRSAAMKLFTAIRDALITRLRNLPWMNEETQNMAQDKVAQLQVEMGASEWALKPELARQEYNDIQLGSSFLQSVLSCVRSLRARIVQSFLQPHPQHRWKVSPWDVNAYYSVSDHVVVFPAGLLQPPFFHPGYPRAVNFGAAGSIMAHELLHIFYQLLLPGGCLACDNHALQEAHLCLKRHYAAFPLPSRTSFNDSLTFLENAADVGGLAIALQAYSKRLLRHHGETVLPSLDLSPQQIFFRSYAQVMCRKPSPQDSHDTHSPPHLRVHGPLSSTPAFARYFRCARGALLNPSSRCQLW


How the values were obtained:
[1] = target: T1, human Kell glycoprotein, k form (KEL2); assay: flow cytometry on human K-k+ RBCs
[2] = target: T2, human Kell glycoprotein, K form (KEL1); assay: flow cytometry on human K+k+ RBCs, detected with polyclonal anti-IgG
Method: Flow cytometry consisted of incubating test RBCs with PUMA 1 variants, followed by the anti-IgG being evaluated, followed by a detection reagent. Test RBCs included RBCs from K mice, wild-type mice, and reagent RBCs from humans with the phenotype of (K+k+) or (K−k+). Test RBCs were resuspended in 50 microliters of supernatants of PUMA 1 isoallotypes; in some cases a 1/10 dilution in phosphate buffered saline (PBS) was used. For purified IgG1-IgG4 PUMA 1, the antibodies were diluted in PBS at the indicated concentrations. The tested anti-IgG reagents were used undiluted. Detection reagents consisted of donkey anti-rabbit conjugated to phycoerythrin at a 1/200 dilution (Affymetrix cat #12-4739-81, Santa Clara, Calif.), goat anti-mouse IgM conjugated to allophycocyanin at a 1/100 dilution (BD Biosciences, cat #550826, San Jose, Calif.), and goat anti-mouse Igs conjugated to allophycocyanin at a 1/100 dilution (SouthernBiotech cat #1020-11s, Birmingham, Ala.). All anti-IgG subclass antibodies were conjugated to phycoerythrin, were purchased from SouthernBiotech (catalog numbers 9056-09, 9070-09, 9210-09, 9200-09), and were used at a dilution of 1.200. All incubations were performed for 30 min at room temperature, followed by three washes with PBS. All flow cytometry was performed on an Accuri 4 color cytometer (BD biosciences, San Jose Calif.) and all data was analyzed with Flo-Jo version 10.
To assess the sensitivity of commercially available anti-IgG preparations for different human IgG subclasses bound to RBCs, K+k+ RBCs were first incubated with PUMA 1 of the different human IgG subclasses, followed by incubation with anti-IgG. Treated RBCs were then stained with a fluorescently labeled antibody specific for the species in which the anti-IgG was generated (and non-reactive with human IgG). For each anti-IgG, the same secondary antibody was used to detect binding of the anti-IgG to each human PUMA 1 IgG subclass. To assess relative sensitivity, titrations of each PUMA 1 IgG subclass were carried out and samples were analyzed by flow cytometry using mean fluorescent intensity (MFI) to quantify staining (FIGS. 28A, 28B).

Binder	binding result [1]	binding result [2]
PUMA 1 human IgG2-02 isoallotype (antibody, Isoallotype named in CLM-00007; not shown: human IgG2 heavy chain constant region, isoallotype IGHG2*02; human kappa light chain constant region (vector pFUSE2-CLIg-hk)) heavy: EVQLQQSGPELVKPGASVKMSCKASGYTFTDYYMKWVKQSHGKSLEWIGDLNPNNGDTFYNQKFKGKATLTVDKSSSTAYIQLNSLTSEDSAVYYCAREAGSSFGSSCNYWGQGTTLTVS light: SVVMTQTPKFLLVSAGDRVTITCKASQTVSKDVAWYQQQPGQSPKLLIYYASNRYTGVPDRFTGSGYGTDFTFTISTVQAEDLAVYFCQQDYSSPYTFGGGTKLEIK	no binding	binds
PUMA 1 human IgG3-13 isoallotype (antibody, also called PUMA1-IgG3-13; not shown: human kappa light chain constant region (vector pFUSE2-CLIg-hk)) heavy: EVQLQQSGPELVKPGASVKMSCKASGYTFTDYYMKWVKQSHGKSLEWIGDLNPNNGDTFYNQKFKGKATLTVDKSSSTAYIQLNSLTSEDSAVYYCAREAGSSFGSSCNYWGQGTTLTVS light: SVVMTQTPKFLLVSAGDRVTITCKASQTVSKDVAWYQQQPGQSPKLLIYYASNRYTGVPDRFTGSGYGTDFTFTISTVQAEDLAVYFCQQDYSSPYTFGGGTKLEIK	no binding	binds
PUMA 1 human IgG3-11 isoallotype (antibody, Isoallotype named in CLM-00007; not shown: human IgG3 heavy chain constant region, isoallotype IGHG3*11; human kappa light chain constant region (vector pFUSE2-CLIg-hk)) heavy: EVQLQQSGPELVKPGASVKMSCKASGYTFTDYYMKWVKQSHGKSLEWIGDLNPNNGDTFYNQKFKGKATLTVDKSSSTAYIQLNSLTSEDSAVYYCAREAGSSFGSSCNYWGQGTTLTVS light: SVVMTQTPKFLLVSAGDRVTITCKASQTVSKDVAWYQQQPGQSPKLLIYYASNRYTGVPDRFTGSGYGTDFTFTISTVQAEDLAVYFCQQDYSSPYTFGGGTKLEIK	no binding	binds
PUMA 1 human IgG2-04 isoallotype (antibody, Isoallotype named in CLM-00007; not shown: human IgG2 heavy chain constant region, isoallotype IGHG2*04; human kappa light chain constant region (vector pFUSE2-CLIg-hk)) heavy: EVQLQQSGPELVKPGASVKMSCKASGYTFTDYYMKWVKQSHGKSLEWIGDLNPNNGDTFYNQKFKGKATLTVDKSSSTAYIQLNSLTSEDSAVYYCAREAGSSFGSSCNYWGQGTTLTVS light: SVVMTQTPKFLLVSAGDRVTITCKASQTVSKDVAWYQQQPGQSPKLLIYYASNRYTGVPDRFTGSGYGTDFTFTISTVQAEDLAVYFCQQDYSSPYTFGGGTKLEIK	no binding	binds
PUMA 1 human IgG2-06 isoallotype (antibody, Isoallotype named in CLM-00007; not shown: human IgG2 heavy chain constant region, isoallotype IGHG2*06; human kappa light chain constant region (vector pFUSE2-CLIg-hk)) heavy: EVQLQQSGPELVKPGASVKMSCKASGYTFTDYYMKWVKQSHGKSLEWIGDLNPNNGDTFYNQKFKGKATLTVDKSSSTAYIQLNSLTSEDSAVYYCAREAGSSFGSSCNYWGQGTTLTVS light: SVVMTQTPKFLLVSAGDRVTITCKASQTVSKDVAWYQQQPGQSPKLLIYYASNRYTGVPDRFTGSGYGTDFTFTISTVQAEDLAVYFCQQDYSSPYTFGGGTKLEIK	no binding	binds
PUMA 1 human IgG3-06 isoallotype (antibody, Isoallotype named in CLM-00007; also called PUMA1-IgG3-6; not shown: human IgG3 heavy chain constant region, isoallotype IGHG3*06; human kappa light chain constant region (vector pFUSE2-CLIg-hk)) heavy: EVQLQQSGPELVKPGASVKMSCKASGYTFTDYYMKWVKQSHGKSLEWIGDLNPNNGDTFYNQKFKGKATLTVDKSSSTAYIQLNSLTSEDSAVYYCAREAGSSFGSSCNYWGQGTTLTVS light: SVVMTQTPKFLLVSAGDRVTITCKASQTVSKDVAWYQQQPGQSPKLLIYYASNRYTGVPDRFTGSGYGTDFTFTISTVQAEDLAVYFCQQDYSSPYTFGGGTKLEIK	no binding	binds
PUMA 1 human IgG3-09 isoallotype (antibody, Isoallotype named in CLM-00007; not shown: human IgG3 heavy chain constant region, isoallotype IGHG3*09; human kappa light chain constant region (vector pFUSE2-CLIg-hk)) heavy: EVQLQQSGPELVKPGASVKMSCKASGYTFTDYYMKWVKQSHGKSLEWIGDLNPNNGDTFYNQKFKGKATLTVDKSSSTAYIQLNSLTSEDSAVYYCAREAGSSFGSSCNYWGQGTTLTVS light: SVVMTQTPKFLLVSAGDRVTITCKASQTVSKDVAWYQQQPGQSPKLLIYYASNRYTGVPDRFTGSGYGTDFTFTISTVQAEDLAVYFCQQDYSSPYTFGGGTKLEIK	no binding	binds
PUMA 1 human IgG3-03 isoallotype (antibody, also called PUMA1-IgG3-03; not shown: human kappa light chain constant region (vector pFUSE2-CLIg-hk)) heavy: EVQLQQSGPELVKPGASVKMSCKASGYTFTDYYMKWVKQSHGKSLEWIGDLNPNNGDTFYNQKFKGKATLTVDKSSSTAYIQLNSLTSEDSAVYYCAREAGSSFGSSCNYWGQGTTLTVS light: SVVMTQTPKFLLVSAGDRVTITCKASQTVSKDVAWYQQQPGQSPKLLIYYASNRYTGVPDRFTGSGYGTDFTFTISTVQAEDLAVYFCQQDYSSPYTFGGGTKLEIK	no binding	binds
PUMA 1 human IgG3-08 isoallotype (antibody, Isoallotype named in CLM-00007; not shown: human IgG3 heavy chain constant region, isoallotype IGHG3*08; human kappa light chain constant region (vector pFUSE2-CLIg-hk)) heavy: EVQLQQSGPELVKPGASVKMSCKASGYTFTDYYMKWVKQSHGKSLEWIGDLNPNNGDTFYNQKFKGKATLTVDKSSSTAYIQLNSLTSEDSAVYYCAREAGSSFGSSCNYWGQGTTLTVS light: SVVMTQTPKFLLVSAGDRVTITCKASQTVSKDVAWYQQQPGQSPKLLIYYASNRYTGVPDRFTGSGYGTDFTFTISTVQAEDLAVYFCQQDYSSPYTFGGGTKLEIK	no binding	binds
PUMA 1 human IgG3-12 isoallotype (antibody, Isoallotype named in CLM-00007; not shown: human IgG3 heavy chain constant region, isoallotype IGHG3*12; human kappa light chain constant region (vector pFUSE2-CLIg-hk)) heavy: EVQLQQSGPELVKPGASVKMSCKASGYTFTDYYMKWVKQSHGKSLEWIGDLNPNNGDTFYNQKFKGKATLTVDKSSSTAYIQLNSLTSEDSAVYYCAREAGSSFGSSCNYWGQGTTLTVS light: SVVMTQTPKFLLVSAGDRVTITCKASQTVSKDVAWYQQQPGQSPKLLIYYASNRYTGVPDRFTGSGYGTDFTFTISTVQAEDLAVYFCQQDYSSPYTFGGGTKLEIK	no binding	binds
PUMA 1 human IgG3-14 isoallotype (antibody, Isoallotype named in CLM-00007; not shown: human IgG3 heavy chain constant region, isoallotype IGHG3*14; human kappa light chain constant region (vector pFUSE2-CLIg-hk)) heavy: EVQLQQSGPELVKPGASVKMSCKASGYTFTDYYMKWVKQSHGKSLEWIGDLNPNNGDTFYNQKFKGKATLTVDKSSSTAYIQLNSLTSEDSAVYYCAREAGSSFGSSCNYWGQGTTLTVS light: SVVMTQTPKFLLVSAGDRVTITCKASQTVSKDVAWYQQQPGQSPKLLIYYASNRYTGVPDRFTGSGYGTDFTFTISTVQAEDLAVYFCQQDYSSPYTFGGGTKLEIK	no binding	binds
PUMA 1 human IgG3-04 isoallotype (antibody, Isoallotype named in CLM-00007; not shown: human IgG3 heavy chain constant region, isoallotype IGHG3*04; human kappa light chain constant region (vector pFUSE2-CLIg-hk)) heavy: EVQLQQSGPELVKPGASVKMSCKASGYTFTDYYMKWVKQSHGKSLEWIGDLNPNNGDTFYNQKFKGKATLTVDKSSSTAYIQLNSLTSEDSAVYYCAREAGSSFGSSCNYWGQGTTLTVS light: SVVMTQTPKFLLVSAGDRVTITCKASQTVSKDVAWYQQQPGQSPKLLIYYASNRYTGVPDRFTGSGYGTDFTFTISTVQAEDLAVYFCQQDYSSPYTFGGGTKLEIK	no binding	binds
